Like-named read-outs stand apart in the source and are kept apart here.
Assays:
AUC [1] = target: the molecule itself; test: AUC
[2] = target: the molecule itself; test: negative-stain electron microscopy, single particle analysis
AUC [3] = target: the molecule itself; test: AUC; remark: listed apart in the source

Protein | % Hexamer (AUC [1]) [%] | stoichiometry N [2] | % Hexamer (AUC [3]) [%]
His6-NSF-myc (1-744), N-Ethylmaleimide Sensitive Factor, wild type (enzyme, Chinese hamster (from CHO cells), UniProt P18708 1-744, looked up, (Ni2+-NTA)2-Cy3 bound to the His6 tag (ultracentrifugation only; 1 mole of dye per mole of NSF hexamer)) MAGRSMQAARCPTDELSLSNCAVVSEKDYQSGQHVIVRTSPNHKYIFTLRTHPSVVPGSVAFSLPQRKWAGLSIGQEIEVALYSFDKAKQCIGTMTIEIDFLQKKNIDSNPYDTDKMAAEFIQQFNNQAFSVGQQLVFSFNDKLFGLLVKDIEAMDPSILKGEPASGKRQKIEVGLVVGNSQVAFEKAENSSLNLIGKAKTKENRQSIINPDWNFEKMGIGGLDKEFSDIFRRAFASRVFPPEIVEQMGCKHVKGILLYGPPGCGKTLLARQIGKMLNAREPKVVNGPEILNKYVGESEANIRKLFADAEEEQRRLGANSGLHIIIFDEIDAICKQRGSMAGSTGVHDTVVNQLLSKIDGVEQLNNILVIGMTNRPDLIDEALLRPGRLEVKMEIGLPDEKGRLQILHIHTARMRGHQLLSADVDIKELAVETKNFSGAELEGLVRAAQSTAMNRHIKASTKVEVDMEKAESLQVTRGDFLASLENDIKPAFGTNQEDYASYIMNGIIKWGDPVTRVLDDGELLVQQTKNSDRTPLVSVLLEGPPHSGKTALAAKIAEESNFPFIKICSPDKMIGFSETAKCQAMKKIFDDAYKSQLSCVVVDDIERLLDYVPIGPRFSNLVLQALLVLLKKAPPQGRKLLIIGTTSRKDVLQEMEMLNAFSTTIHVPNIATGEQLLEALELLGNFKDKERTTIAQQVKGKKVWIGIKKLLMLIEMSLQMDPEYRVRKFLALLREEGASPLDFD | 47 ± 3.7 | 6 | 62 ± 5.74
His6-NSF-R67A-myc (enzyme, Chinese hamster (from CHO cells), UniProt P18708 1-744, looked up, (Ni2+-NTA)2-Cy3 bound to the His6 tag (ultracentrifugation)) MAGRSMQAARCPTDELSLSNCAVVSEKDYQSGQHVIVRTSPNHKYIFTLRTHPSVVPGSVAFSLPQAKWAGLSIGQEIEVALYSFDKAKQCIGTMTIEIDFLQKKNIDSNPYDTDKMAAEFIQQFNNQAFSVGQQLVFSFNDKLFGLLVKDIEAMDPSILKGEPASGKRQKIEVGLVVGNSQVAFEKAENSSLNLIGKAKTKENRQSIINPDWNFEKMGIGGLDKEFSDIFRRAFASRVFPPEIVEQMGCKHVKGILLYGPPGCGKTLLARQIGKMLNAREPKVVNGPEILNKYVGESEANIRKLFADAEEEQRRLGANSGLHIIIFDEIDAICKQRGSMAGSTGVHDTVVNQLLSKIDGVEQLNNILVIGMTNRPDLIDEALLRPGRLEVKMEIGLPDEKGRLQILHIHTARMRGHQLLSADVDIKELAVETKNFSGAELEGLVRAAQSTAMNRHIKASTKVEVDMEKAESLQVTRGDFLASLENDIKPAFGTNQEDYASYIMNGIIKWGDPVTRVLDDGELLVQQTKNSDRTPLVSVLLEGPPHSGKTALAAKIAEESNFPFIKICSPDKMIGFSETAKCQAMKKIFDDAYKSQLSCVVVDDIERLLDYVPIGPRFSNLVLQALLVLLKKAPPQGRKLLIIGTTSRKDVLQEMEMLNAFSTTIHVPNIATGEQLLEALELLGNFKDKERTTIAQQVKGKKVWIGIKKLLMLIEMSLQMDPEYRVRKFLALLREEGASPLDFD | 38.7 ± 4.21 | – | 55.6 ± 12.5
His6-NSF-D1D2-myc fragment (206-744) (domain or fragment, Chinese hamster (from CHO cells), UniProt P18708 206-744, looked up, (Ni2+-NTA)2-Cy3 bound to the His6 tag (ultracentrifugation only)) QSIINPDWNFEKMGIGGLDKEFSDIFRRAFASRVFPPEIVEQMGCKHVKGILLYGPPGCGKTLLARQIGKMLNAREPKVVNGPEILNKYVGESEANIRKLFADAEEEQRRLGANSGLHIIIFDEIDAICKQRGSMAGSTGVHDTVVNQLLSKIDGVEQLNNILVIGMTNRPDLIDEALLRPGRLEVKMEIGLPDEKGRLQILHIHTARMRGHQLLSADVDIKELAVETKNFSGAELEGLVRAAQSTAMNRHIKASTKVEVDMEKAESLQVTRGDFLASLENDIKPAFGTNQEDYASYIMNGIIKWGDPVTRVLDDGELLVQQTKNSDRTPLVSVLLEGPPHSGKTALAAKIAEESNFPFIKICSPDKMIGFSETAKCQAMKKIFDDAYKSQLSCVVVDDIERLLDYVPIGPRFSNLVLQALLVLLKKAPPQGRKLLIIGTTSRKDVLQEMEMLNAFSTTIHVPNIATGEQLLEALELLGNFKDKERTTIAQQVKGKKVWIGIKKLLMLIEMSLQMDPEYRVRKFLALLREEGASPLDFD | 14.1 ± 0.31 | 6 | 44 ± 2.93
His6-NSF-D2 fragment (488-744) (domain or fragment, Chinese hamster (from CHO cells), UniProt P18708 488-744, looked up, (Ni2+-NTA)2-Cy3 bound to the His6 tag (ultracentrifugation)) IKPAFGTNQEDYASYIMNGIIKWGDPVTRVLDDGELLVQQTKNSDRTPLVSVLLEGPPHSGKTALAAKIAEESNFPFIKICSPDKMIGFSETAKCQAMKKIFDDAYKSQLSCVVVDDIERLLDYVPIGPRFSNLVLQALLVLLKKAPPQGRKLLIIGTTSRKDVLQEMEMLNAFSTTIHVPNIATGEQLLEALELLGNFKDKERTTIAQQVKGKKVWIGIKKLLMLIEMSLQMDPEYRVRKFLALLREEGASPLDFD | 10.3 ± 0.63 | – | 28.8 ± 1.92
His6-NSF-L441A-myc (enzyme, Chinese hamster (from CHO cells), UniProt P18708 1-744, looked up, (Ni2+-NTA)2-Cy3 bound to the His6 tag (ultracentrifugation)) MAGRSMQAARCPTDELSLSNCAVVSEKDYQSGQHVIVRTSPNHKYIFTLRTHPSVVPGSVAFSLPQRKWAGLSIGQEIEVALYSFDKAKQCIGTMTIEIDFLQKKNIDSNPYDTDKMAAEFIQQFNNQAFSVGQQLVFSFNDKLFGLLVKDIEAMDPSILKGEPASGKRQKIEVGLVVGNSQVAFEKAENSSLNLIGKAKTKENRQSIINPDWNFEKMGIGGLDKEFSDIFRRAFASRVFPPEIVEQMGCKHVKGILLYGPPGCGKTLLARQIGKMLNAREPKVVNGPEILNKYVGESEANIRKLFADAEEEQRRLGANSGLHIIIFDEIDAICKQRGSMAGSTGVHDTVVNQLLSKIDGVEQLNNILVIGMTNRPDLIDEALLRPGRLEVKMEIGLPDEKGRLQILHIHTARMRGHQLLSADVDIKELAVETKNFSGAEAEGLVRAAQSTAMNRHIKASTKVEVDMEKAESLQVTRGDFLASLENDIKPAFGTNQEDYASYIMNGIIKWGDPVTRVLDDGELLVQQTKNSDRTPLVSVLLEGPPHSGKTALAAKIAEESNFPFIKICSPDKMIGFSETAKCQAMKKIFDDAYKSQLSCVVVDDIERLLDYVPIGPRFSNLVLQALLVLLKKAPPQGRKLLIIGTTSRKDVLQEMEMLNAFSTTIHVPNIATGEQLLEALELLGNFKDKERTTIAQQVKGKKVWIGIKKLLMLIEMSLQMDPEYRVRKFLALLREEGASPLDFD | 34.2 ± 2.78 | – | 34.4 ± 1.06
